In patent US20160114035A1 (published 2016):

target: DRB1*0802; assay: binding to purified HLA

Binder | IC50 [nM]
AAANFVAAYTLHAAA [N4.Y9.H12] | 7.5
AAAEFVAAYTLHAAA [E4.Y9.H12] | 13
AAAEFVAAWTLHAAA [E4.H12] | 24
AAAHFVAAFTLKAEA [H4.F9.E14] | 19

target: DRB1*1501; assay: binding to purified HLA

Binder | IC50 [nM]
AAANFVAAYTLHAAA [N4.Y9.H12] | 4.2
AAAEFVAAYTLHAAA [E4.Y9.H12] | 6.9
AAAEFVAAWTLHAAA [E4.H12] | 51
AAAHFVAAFTLKAEA [H4.F9.E14] | 31

target: DRB1*1302; assay: binding to purified HLA

Binder | IC50 [nM]
AAANFVAAYTLHAAA [N4.Y9.H12] | 1420
AAAEFVAAYTLHAAA [E4.Y9.H12] | 1450
AAAEFVAAWTLHAAA [E4.H12] | 1150
AAAHFVAAFTLKAEA [H4.F9.E14] | 801

target: DRB1*0701; assay: binding to purified HLA

Binder | IC50 [nM]
AAANFVAAYTLHAAA [N4.Y9.H12] | 67
AAAEFVAAYTLHAAA [E4.Y9.H12] | 161
AAAEFVAAWTLHAAA [E4.H12] | 97
AAAHFVAAFTLKAEA [H4.F9.E14] | 49

target: DRB1*0401; assay: binding to purified HLA

Binder | IC50 [nM]
AAANFVAAYTLHAAA [N4.Y9.H12] | 1.8
AAAEFVAAYTLHAAA [E4.Y9.H12] | 2.3
AAAEFVAAWTLHAAA [E4.H12] | 3.1
AAAHFVAAFTLKAEA [H4.F9.E14] | 6.4

target: DRB1*0101; assay: binding to purified HLA

Binder | IC50 [nM]
AAANFVAAYTLHAAA [N4.Y9.H12] | 2.7
AAAEFVAAYTLHAAA [E4.Y9.H12] | 3.9
AAAEFVAAWTLHAAA [E4.H12] | 5.1
AAAHFVAAFTLKAEA [H4.F9.E14] | 6.8

target: DRB4*0101; assay: binding to purified HLA

Binder | IC50 [nM]
AAANFVAAYTLHAAA [N4.Y9.H12] | 567
AAAEFVAAYTLHAAA [E4.Y9.H12] | 448
AAAEFVAAWTLHAAA [E4.H12] | 350
AAAHFVAAFTLKAEA [H4.F9.E14] | 526

target: DRB1*0901; assay: binding to purified HLA

Binder | IC50 [nM]
AAANFVAAYTLHAAA [N4.Y9.H12] | 25
AAAEFVAAYTLHAAA [E4.Y9.H12] | 28
AAAEFVAAWTLHAAA [E4.H12] | 44
AAAHFVAAFTLKAEA [H4.F9.E14] | 46

target: DRB1*0404; assay: binding to purified HLA

Binder | IC50 [nM]
AAANFVAAYTLHAAA [N4.Y9.H12] | 5.2
AAAEFVAAYTLHAAA [E4.Y9.H12] | 3.2
AAAEFVAAWTLHAAA [E4.H12] | 4.1
AAAHFVAAFTLKAEA [H4.F9.E14] | 8.1

target: DRB1*1101; assay: binding to purified HLA

Binder | IC50 [nM]
AAANFVAAYTLHAAA [N4.Y9.H12] | 16
AAAEFVAAYTLHAAA [E4.Y9.H12] | 27
AAAEFVAAWTLHAAA [E4.H12] | 38
AAAHFVAAFTLKAEA [H4.F9.E14] | 41

target: DRB5*0101; assay: binding to purified HLA

Binder | IC50 [nM]
AAANFVAAYTLHAAA [N4.Y9.H12] | 20
AAAEFVAAYTLHAAA [E4.Y9.H12] | 52
AAAEFVAAWTLHAAA [E4.H12] | 48
AAAHFVAAFTLKAEA [H4.F9.E14] | 19

target: DRB1*0301; assay: binding to purified HLA

Binder | IC50 [nM]
AAANFVAAYTLHAAA [N4.Y9.H12] | 171
AAAEFVAAYTLHAAA [E4.Y9.H12] | 144
AAAEFVAAWTLHAAA [E4.H12] | 134
AAAHFVAAFTLKAEA [H4.F9.E14] | 855

target: DRB1*0405; assay: binding to purified HLA

Binder | IC50 [nM]
AAANFVAAYTLHAAA [N4.Y9.H12] | 19
AAAEFVAAYTLHAAA [E4.Y9.H12] | 17
AAAEFVAAWTLHAAA [E4.H12] | 27
AAAHFVAAFTLKAEA [H4.F9.E14] | 8.1

target: DRB1*0802; assay: binding to purified HLA; remark: another data set of the same source

Binder | IC50 [nM]
AAAHFVAAWTLHAAA [H4.H12] | 9.3
AAAKFVAAWTLKAAA [SEQ ID NO: 4] | 5.2
AAAYFVAANTLHAAA [Y4.N9.H12] | 12
AAAYFVAAWTLHAAA [Y4.H12] | 9.7
AAAWFVAANTLHAAA [W4.N9.H12] | 8.6
AAAFFVAANTLHAAA [F4.N9.H12] | 28
AAAFFVAANTLKADA [F4.N9.D14] | 16
AAAYFVAAFTLHAAA [Y4.F9.H12] | 5.9

target: DRB1*1501; assay: binding to purified HLA; remark: another data set of the same source

Binder | IC50 [nM]
AAAHFVAAWTLHAAA [H4.H12] | 12
AAAKFVAAWTLKAAA [SEQ ID NO: 4] | 9.8
AAAYFVAANTLHAAA [Y4.N9.H12] | 53
AAAYFVAAWTLHAAA [Y4.H12] | 16
AAAWFVAANTLHAAA [W4.N9.H12] | 101
AAAFFVAANTLHAAA [F4.N9.H12] | 70
AAAFFVAANTLKADA [F4.N9.D14] | 103
AAAYFVAAFTLHAAA [Y4.F9.H12] | 16

target: DRB1*1302; assay: binding to purified HLA; remark: another data set of the same source

Binder | IC50 [nM]
AAAHFVAAWTLHAAA [H4.H12] | 1190
AAAKFVAAWTLKAAA [SEQ ID NO: 4] | 648
AAAYFVAANTLHAAA [Y4.N9.H12] | 54
AAAYFVAAWTLHAAA [Y4.H12] | 1560
AAAWFVAANTLHAAA [W4.N9.H12] | 38
AAAFFVAANTLHAAA [F4.N9.H12] | 64
AAAFFVAANTLKADA [F4.N9.D14] | 187
AAAYFVAAFTLHAAA [Y4.F9.H12] | 2560

target: DRB1*0701; assay: binding to purified HLA; remark: another data set of the same source

Binder | IC50 [nM]
AAAHFVAAWTLHAAA [H4.H12] | 53
AAAKFVAAWTLKAAA [SEQ ID NO: 4] | 49
AAAYFVAANTLHAAA [Y4.N9.H12] | 49
AAAYFVAAWTLHAAA [Y4.H12] | 55
AAAWFVAANTLHAAA [W4.N9.H12] | 43
AAAFFVAANTLHAAA [F4.N9.H12] | 82
AAAFFVAANTLKADA [F4.N9.D14] | 74
AAAYFVAAFTLHAAA [Y4.F9.H12] | 78

target: DRB1*0401; assay: binding to purified HLA; remark: another data set of the same source

Binder | IC50 [nM]
AAAHFVAAWTLHAAA [H4.H12] | 2.5
AAAKFVAAWTLKAAA [SEQ ID NO: 4] | 2.6
AAAYFVAANTLHAAA [Y4.N9.H12] | 3.3
AAAYFVAAWTLHAAA [Y4.H12] | 2.6
AAAWFVAANTLHAAA [W4.N9.H12] | 2.9
AAAFFVAANTLHAAA [F4.N9.H12] | 3.8
AAAFFVAANTLKADA [F4.N9.D14] | 4
AAAYFVAAFTLHAAA [Y4.F9.H12] | 1

target: DRB1*0101; assay: binding to purified HLA; remark: another data set of the same source

Binder | IC50 [nM]
AAAHFVAAWTLHAAA [H4.H12] | 4.2
AAAKFVAAWTLKAAA [SEQ ID NO: 4] | 3.3
AAAYFVAANTLHAAA [Y4.N9.H12] | 4.5
AAAYFVAAWTLHAAA [Y4.H12] | 3.7
AAAWFVAANTLHAAA [W4.N9.H12] | 3.8
AAAFFVAANTLHAAA [F4.N9.H12] | 6.5
AAAFFVAANTLKADA [F4.N9.D14] | 3.4
AAAYFVAAFTLHAAA [Y4.F9.H12] | 3.4

target: DRB4*0101; assay: binding to purified HLA; remark: another data set of the same source

Binder | IC50 [nM]
AAAHFVAAWTLHAAA [H4.H12] | 267
AAAKFVAAWTLKAAA [SEQ ID NO: 4] | 207
AAAYFVAANTLHAAA [Y4.N9.H12] | 703
AAAYFVAAWTLHAAA [Y4.H12] | 279
AAAWFVAANTLHAAA [W4.N9.H12] | 606
AAAFFVAANTLHAAA [F4.N9.H12] | 876
AAAFFVAANTLKADA [F4.N9.D14] | 5520
AAAYFVAAFTLHAAA [Y4.F9.H12] | 81

target: DRB1*0901; assay: binding to purified HLA; remark: another data set of the same source

Binder | IC50 [nM]
AAAHFVAAWTLHAAA [H4.H12] | 21
AAAKFVAAWTLKAAA [SEQ ID NO: 4] | 28
AAAYFVAANTLHAAA [Y4.N9.H12] | 21
AAAYFVAAWTLHAAA [Y4.H12] | 18
AAAWFVAANTLHAAA [W4.N9.H12] | 33
AAAFFVAANTLHAAA [F4.N9.H12] | 31
AAAFFVAANTLKADA [F4.N9.D14] | 18
AAAYFVAAFTLHAAA [Y4.F9.H12] | 13

target: DRB1*0404; assay: binding to purified HLA; remark: another data set of the same source

Binder | IC50 [nM]
AAAHFVAAWTLHAAA [H4.H12] | 2.5
AAAKFVAAWTLKAAA [SEQ ID NO: 4] | 2.9
AAAYFVAANTLHAAA [Y4.N9.H12] | 5.2
AAAYFVAAWTLHAAA [Y4.H12] | 2.6
AAAWFVAANTLHAAA [W4.N9.H12] | 5.5
AAAFFVAANTLHAAA [F4.N9.H12] | 4.1
AAAFFVAANTLKADA [F4.N9.D14] | 4.5
AAAYFVAAFTLHAAA [Y4.F9.H12] | 0.67

target: DRB1*1101; assay: binding to purified HLA; remark: another data set of the same source

Binder | IC50 [nM]
AAAHFVAAWTLHAAA [H4.H12] | 14
AAAKFVAAWTLKAAA [SEQ ID NO: 4] | 11
AAAYFVAANTLHAAA [Y4.N9.H12] | 14
AAAYFVAAWTLHAAA [Y4.H12] | 18
AAAWFVAANTLHAAA [W4.N9.H12] | 16
AAAFFVAANTLHAAA [F4.N9.H12] | 42
AAAFFVAANTLKADA [F4.N9.D14] | 46
AAAYFVAAFTLHAAA [Y4.F9.H12] | 17

target: DRB5*0101; assay: binding to purified HLA; remark: another data set of the same source

Binder | IC50 [nM]
AAAHFVAAWTLHAAA [H4.H12] | 23
AAAKFVAAWTLKAAA [SEQ ID NO: 4] | 5.4
AAAYFVAANTLHAAA [Y4.N9.H12] | 16
AAAYFVAAWTLHAAA [Y4.H12] | 15
AAAWFVAANTLHAAA [W4.N9.H12] | 22
AAAFFVAANTLHAAA [F4.N9.H12] | 26
AAAFFVAANTLKADA [F4.N9.D14] | 4.4
AAAYFVAAFTLHAAA [Y4.F9.H12] | 18

target: DRB1*0301; assay: binding to purified HLA; remark: another data set of the same source

Binder | IC50 [nM]
AAAHFVAAWTLHAAA [H4.H12] | 198
AAAKFVAAWTLKAAA [SEQ ID NO: 4] | 209
AAAYFVAANTLHAAA [Y4.N9.H12] | 130
AAAYFVAAWTLHAAA [Y4.H12] | 119
AAAWFVAANTLHAAA [W4.N9.H12] | 174
AAAFFVAANTLHAAA [F4.N9.H12] | 286
AAAFFVAANTLKADA [F4.N9.D14] | 140
AAAYFVAAFTLHAAA [Y4.F9.H12] | 126

target: DRB1*0405; assay: binding to purified HLA; remark: another data set of the same source

Binder | IC50 [nM]
AAAHFVAAWTLHAAA [H4.H12] | 12
AAAKFVAAWTLKAAA [SEQ ID NO: 4] | 25
AAAYFVAANTLHAAA [Y4.N9.H12] | 13
AAAYFVAAWTLHAAA [Y4.H12] | 6.9
AAAWFVAANTLHAAA [W4.N9.H12] | 21
AAAFFVAANTLHAAA [F4.N9.H12] | 27
AAAFFVAANTLKADA [F4.N9.D14] | 9.5
AAAYFVAAFTLHAAA [Y4.F9.H12] | 4.4
